Assay results published in article PMC4966845 (mAbs, 2016).
Changes are numbered by the printed parent chain. Read-outs that look alike come from different tables or passages of the source.

Columns and labels:
[1] = molecular target: T1, human IGF-1R extracellular domain (Homo sapiens, UniProt P08069); experiment: SPR
[2] = molecular target: T2, IGF-1R on tumor cells (A549, TC-71) (Homo sapiens (A549, TC-71 cells), UniProt P08069); experiment: flow cytometry on cells
[3] = molecular target: T1, human IGF-1R extracellular domain; experiment: SPR; remark: listed apart in the source
[4] = molecular target: T2, IGF-1R on tumor cells (A549, TC-71); experiment: flow cytometry on cells; remark: listed apart in the source

T2 sequence (P08069 31-1367): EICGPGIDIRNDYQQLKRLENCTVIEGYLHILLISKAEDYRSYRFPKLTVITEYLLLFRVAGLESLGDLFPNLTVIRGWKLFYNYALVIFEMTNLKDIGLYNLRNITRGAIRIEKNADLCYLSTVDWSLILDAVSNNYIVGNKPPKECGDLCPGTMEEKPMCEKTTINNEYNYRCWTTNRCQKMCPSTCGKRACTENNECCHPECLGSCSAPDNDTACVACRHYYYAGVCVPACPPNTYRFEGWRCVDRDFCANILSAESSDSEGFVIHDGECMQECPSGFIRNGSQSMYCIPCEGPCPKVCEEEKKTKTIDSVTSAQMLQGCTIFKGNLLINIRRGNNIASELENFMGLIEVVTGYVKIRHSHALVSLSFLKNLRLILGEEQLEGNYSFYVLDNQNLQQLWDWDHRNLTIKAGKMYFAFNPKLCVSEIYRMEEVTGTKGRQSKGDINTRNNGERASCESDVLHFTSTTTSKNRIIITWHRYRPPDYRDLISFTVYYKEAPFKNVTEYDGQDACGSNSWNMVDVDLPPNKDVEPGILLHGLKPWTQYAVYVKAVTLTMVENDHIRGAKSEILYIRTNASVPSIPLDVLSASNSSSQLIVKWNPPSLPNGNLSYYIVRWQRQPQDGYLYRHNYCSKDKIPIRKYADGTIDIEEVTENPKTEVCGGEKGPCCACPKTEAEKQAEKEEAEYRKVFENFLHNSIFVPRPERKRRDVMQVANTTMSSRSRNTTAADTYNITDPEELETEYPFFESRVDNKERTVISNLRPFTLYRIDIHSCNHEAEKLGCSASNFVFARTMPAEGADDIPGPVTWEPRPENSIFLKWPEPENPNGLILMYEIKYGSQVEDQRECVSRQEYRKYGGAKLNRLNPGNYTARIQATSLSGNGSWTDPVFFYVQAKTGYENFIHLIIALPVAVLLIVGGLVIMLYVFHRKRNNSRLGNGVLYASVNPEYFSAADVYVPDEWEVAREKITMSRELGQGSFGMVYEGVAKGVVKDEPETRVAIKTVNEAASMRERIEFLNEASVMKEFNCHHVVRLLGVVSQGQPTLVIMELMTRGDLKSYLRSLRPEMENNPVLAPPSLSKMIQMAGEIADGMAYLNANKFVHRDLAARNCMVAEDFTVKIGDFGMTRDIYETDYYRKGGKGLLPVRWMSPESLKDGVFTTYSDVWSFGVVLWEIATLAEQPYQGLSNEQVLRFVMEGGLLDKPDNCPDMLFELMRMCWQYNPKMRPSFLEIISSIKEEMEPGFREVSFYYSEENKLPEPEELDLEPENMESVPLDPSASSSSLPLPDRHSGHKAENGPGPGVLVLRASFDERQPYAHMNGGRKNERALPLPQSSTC
T1 sequence (P08069 741-935): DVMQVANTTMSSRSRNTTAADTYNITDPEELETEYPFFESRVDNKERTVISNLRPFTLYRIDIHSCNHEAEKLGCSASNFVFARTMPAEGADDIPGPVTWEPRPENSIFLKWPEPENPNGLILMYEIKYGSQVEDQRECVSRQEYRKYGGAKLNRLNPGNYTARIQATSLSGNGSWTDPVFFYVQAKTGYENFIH

B1: F13B5 Fab fragment (Fab, V domains shown)
VH: QVELVESGGGVVQPGRSQRLSCAASGFTFSSYGMHWVRQAPGKGLEWVAIIWFDGSSTYYADSVRGRFTISRDNSKNTLYLQMNSLRAEDTAVYFCARELGRRYFDLWGRGTLVSVSS
VL: EIVLTQSPATLSLSPGERATLSCRASQSVSSYLAWYQQKPGQAPRLLIYQASKRATGIPARFSGSGSGTDFTLTISSLEPEDFAVYYCQQRSKYPPWTFGQGTKVESK
Work on B1 yielded a Kd [1] of 1.47 nM, a koff [1] of 0.00025 s⁻¹ and a kon [1] of 170000 M⁻¹ s⁻¹.

B2: R1507, bivalent monospecific anti-IGF-1R antibody (antibody, V domains shown)
VH: B1 VH
VL: B1 VL with Q50D, Y94W
B2 gave an IC50 [2] of ~1 nM and a Kd [3] of 5 nM.

B3: R1507 Fab fragment (Fab, V domains shown)
VH: B1 VH
VL: B1 VL with Q50D, Y94W
For B3, the “fold reduction of binding against bivalent R1507” value [4] was ~10 fold, the “fold reduction of binding against bivalent R1507” value [2] was ~34 fold and the Kd [1] was 18 nM. It also gave a koff [1] of 0.00271 s⁻¹ and a kon [1] of 153000 M⁻¹ s⁻¹.
